The supplement of paper PMC5998384

Columns and labels:
[1] = tested on: HeLa Kyoto; test: solubility in G1/S (NP-40 vs SDS abundance) (log2 ratio); higher = more soluble; conditions: cell cycle stage: G1/S
[2] = tested on: HeLa Kyoto; test: solubility change mitosis vs G1/S (difference of NP-40 vs SDS log2 ratios) (log2 ratio difference); higher = more soluble in mitosis
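Wherever solubility change mitosis vs G1/S (difference of NP-40 vs SDS log2 ratios) is given: synchronized HeLa Kyoto cells (double thymidine block for G1/S, nocodazole release for mitosis), protein amounts in NP-40 versus SDS lysates quantified by mass spectrometry, three biological replicates.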
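Wherever solubility in G1/S (NP-40 vs SDS abundance) is given: HeLa Kyoto cells arrested at G1/S by double thymidine block, proteins quantified by TMT10plex mass spectrometry in mild NP-40 versus SDS extracts, three biological replicates.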

For “MEKLSALQEQKGELRKRLSYTTHKLEKLETEFDSTRHYLEIELRRAQEELEKVTEKLRRIQSNYMALQRINQELEDKLYRMGQHYEEEKRALSHEIVALNSHLLEAKVTIDKLSEDNELYRKDCNLAAQLLQCSQTYGRVHKVSELPSDFQERVSLHMEKHGCSLPSPLCHPAYADSVPTCVIAKVLEKPDPASLSSRLSDASARDLAFCDGVEKPGPRPPYKGDIYCSDTALYCPEERRRDRRPSVDAPVTDVGFLRAQNSTDSAAEEEEEAEAAAFPAGFQHEAFPSYAGSLPTSSSYSSFSATSEEKEHAQASTLTASQQAIYLNSRDELFDRKPPATTYEGSPRFAKATAAVAAPLEAEVAPGFGRTMSPYPAETFRFPASPGPQQALMPPNLWSLRAKPGTARLPGEDMRGQWRPLSVEDIGAYSYPVSAAGRASPCSFSERYYGGAGGSPGKKADGRASPLYASYKADSFSEGDDLSQGHLAEPCFLRAGGDLSLSPGRSADPLPGYAPSEGGDGDRLGVQLCGTASSPEPEQGSRDSLEPSSMEASPEMHPAARLSPQQAFPRTGGSGLSRKDSLTKAQLYGTLLN [BEGAIN]”, the “solubility in G1/S (log2)” value [1] was 0.208 and the “solubility change mitosis (log2)” value [2] was 0.103.

With “MEKLYSENEGMASNQGKMENEEQPQDERKPEVTCTLEDKKLENEGKTENKGKTGDEEMLKDKGKPESEGEAKEGKSEREGESEMEGGSEREGKPEIEGKPESEGEPGSETRAAGKRPAEDDVPRKAKRKTNKGLAHYLKEYKEAIHDMNFSNEDMIREFDNMAKVQDEKRKSKQKLGAFLWMQRNLQDPFYPRGPREFRGGCRAPRRDIEDIPYV [TCEAL4]” the “solubility in G1/S (log2)” value [1] was 0.49 and the “solubility change mitosis (log2)” value [2] was 0.452.

“MEKPRSIEETPSSEPMEEEEDDDLELFGGYDSFRSYNSSVGSESSSYLEESSEAENEDREAGELPTSPLHLLSPGTPRSLDGSGSEPAVCEMCGIVGTREAFFSKTKRFCSVSCSRSYSSNSKKASILARLQGKPPTKKAKVLHKAAWSAKIGAFLHSQGTGQLADGTPTGQDALVLGFDWGKFLKDHSYKAAPVSCFKHVPLYDQWEDVMKGMKVEVLNSDAVLPSRVYWIASVIQTAGYRVLLRYEGFENDASHDFWCNLGTVDVHPIGWCAINSKILVPPRTIHAKFTDWKGYLMKRLVGSRTLPVDFHIKMVESMKYPFRQGMRLEVVDKSQVSRTRMAVVDTVIGGRLRLLYEDGDSDDDFWCHMWSPLIHPVGWSRRVGHGIKMSERRSDMAHHPTFRKIYCDAVPYLFKKVRAVYTEGGWFEEGMKLEAIDPLNLGNICVATVCKVLLDGYLMICVDGGPSTDGLDWFCYHASSHAIFPATFCQKNDIELTPPKGYEAQTFNWENYLEKTKSKAAPSRLFNMDCPNHGFKVGMKLEAVDLMEPRLICVATVKRVVHRLLSIHFDGWDSEYDQWVDCESPDIYPVGWCELTGYQLQPPVAAEPATPLKAKEATKKKKKQFGKKRKRIPPTKTRPLRQGSKKPLLEDDPQGARKISSEPVPGEIIAVRVKEEHLDVASPDKASSPELPVSVENIKQETDD [L3MBTL2]” was tested, and the “solubility in G1/S (log2)” value [1] was -0.293 and the “solubility change mitosis (log2)” value [2] was 0.0658.

In the case of “MELLCCEGTRHAPRAGPDPRLLGDQRVLQSLLRLEERYVPRASYFQCVQREIKPHMRKMLAYWMLEVCEEQRCEEEVFPLAMNYLDRYLSCVPTRKAQLQLLGAVCMLLASKLRETTPLTIEKLCIYTDHAVSPRQLRDWEVLVLGKLKWDLAAVIAHDFLAFILHRLSLPRDRQALVKKHAQTFLALCATDYTFAMYPPSMIATGSIGAAVQGLGACSMSGDELTELLAGITGTEVDCLRACQEQIEAALRESLREASQTSSSPAPKAPRGSSSQGPSQTSTPTDVTAIHL [CCND3]”, the “solubility in G1/S (log2)” value [1] is reported as 0.226 and the “solubility change mitosis (log2)” value [2] is reported as -0.386.

“MEPPMEPSGGEQEPGAVRFLDLPWEDVLLPHVLNRVPLRQLLRLQRVSRAFRSLVQLHLAGLRRFDAAQVGPQIPRAALARLLRDAEGLQELALAPCHEWLSDEDLVPVLARNPQLRSVALGGCGQLSRRALGALAEGCPRLQRLSLAHCDWVDGLALRGLADRCPALEELDLTACRQLKDEAIVYLAQRRGAGLRSLSLAVNANVGDAAVQELARNCPELHHLDLTGCLRVGSDGVRTLAEYCPVLRSLRVRHCHHVAESSLSRLRKRGVDIDVEPPLHQALVLLQDMAGFAPFVNLQV [FBXL15]” was tested, and the “solubility in G1/S (log2)” value [1] was 0.189 and the “solubility change mitosis (log2)” value [2] was -0.195.

For “MERKRWECPALPQGWEREEVPRRSGLSAGHRDVFYYSPSGKKFRSKPQLARYLGGSMDLSTFDFRTGKMLMSKMNKSRQRVRYDSSNQVKGKPDLNTALPVRQTASIFKQPVTKITNHPSNKVKSDPQKAVDQPRQLFWEKKLSGLNAFDIAEELVKTMDLPKGLQGVGPGCTDETLLSAIASALHTSTMPITGQLSAAVEKNPGVWLNTTQPLCKAFMVTDEDIRKQEELVQQVRKRLEEALMADMLAHVEELARDGEAPLDKACAEDDDEEDEEEEEEEPDPDPEMEHV [MBD3]”, the “solubility in G1/S (log2)” value [1] was 0.334 and the “solubility change mitosis (log2)” value [2] was 0.629.

With “MERMNWLSRLASRGPGHRIPQGANLQTPVMADPETCLMVFKNHWSQVVRILERQGPRAAPGGADDLSAVRNHTYQMLTLLAEDRAVPSAPTGPGPLLEFALHEDLLTRVLTWQLQWDELGDGVEERRAEQLKLFEMLVSEARQPLLRHGPVREALLTLLDACGRPVPSSPALDEGLVLLLSQLCVCVAQEPSLLEFFLQPPPEPGAAPRLLLFSRLVPFVHREGTLGQQARDALLLLMALSAGSPTVGRYIADHSYFCPVLATGLSALYSSLPRKIEVPGDDWHCLRREDWLGVPALALFMSSLEFCNAVIQVAHPLVQKQLVDYIHNGFLVPVMGPALHKTSVEEMIASTAYLELFLRSISEPALLRTFLRFLLLHRHDTHTILDTLVARIGSNSRLCMVSLSLFRTLLNLSCEDVLLQLVLRYLVPCNHVMLSQKPAVRDVDLYGRAADKFLSLIPRCCRHHAPSPPRPEHASWARGPGSPSVDSSSVTTVPRPSTPSRLALFLRQQSLGGSESPGPAPCSPGLSASPASSPGRRPTPAEEPGELEDNYLEYLREARRGVDRCVRACRTWSAPYDGERPSPEPSPFGSRTKKRSLLPEEDRNNVGEGEEEELGRRGRAGGAGEGPGHLPPPQLNGVPGSWPEGAKKVRLVPKEGAGELLEGISEGMAGLEGFGQELRELEVALSNGGTGSESPLEPPLPLEEEEAYESFTCPPEPPGPFLSSPLRTLNQLPSQPFTGPFMAVLFAKLENMLQNSVYVNFLLTGLVAQLACHPQPLLRSFLLNTNMVFQPSVKSLLQVLGSVKNKIENFAASQEDFPALLSKAKKYLIARGKLDWAEGPAAGPAPRRSDPLVKSRRPSLGELLLRHAHSPTRARQAAQLVLQPGRDGAGLGLSGGSPGASTPVLLTRGGAPERQGEALRVKNAVYCAVIFPEFLKELAAISQAHAVTSPFLLETSEEGSGPLISGCGPLNP [FAM160A2]” the “solubility in G1/S (log2)” value [1] was 0.177 and the “solubility change mitosis (log2)” value [2] was 0.0167.

“METPPVNTIGEKDTSQPQQEWEKNLRENLDSVIQIRQQPRDPPTETLELEVSPDPASQILEHTQGAEKLVAELEGDSHKSHGSTSQMPEALQASDLWYCPDGSFVKKIVIRGHGLDKPKLGSCCRVLALGFPFGSGPPEGWTELTMGVGPWREETWGELIEKCLESMCQGEEAELQLPGHSGPPVRLTLASFTQGRDSWELETSEKEALAREERARGTELFRAGNPEGAARCYGRALRLLLTLPPPGPPERTVLHANLAACQLLLGQPQLAAQSCDRVLEREPGHLKALYRRGVAQAALGNLEKATADLKKVLAIDPKNRAAQEELGKVVIQGKNQDAGLAQGLRKMFG [FKBPL]” was tested, and the “solubility in G1/S (log2)” value [1] was 0.618 and the “solubility change mitosis (log2)” value [2] was 0.144.

In the case of “METSSMLSSLNDECKSDNYIEPHYKEWYRVAIDILIEHGLEAYQEFLVQERVSDFLAEEEINYILKNVQKVAQSTAHGTDDSCDDTLSSGTYWPVESDVEAPNLDLGWPYVMPGLLGGTHIDLLFHPPRAHLLTIKETIRKMIKEARKVIALVMDIFTDVDIFKEIVEASTRGVSVYILLDESNFNHFLNMTEKQGCSVQRLRNIRVRTVKGQDYLSKTGAKFHGKMEQKFLLVDCQKVMYGSYSYMWSFEKAHLSMVQIITGQLVESFDEEFRTLYARSCVPSSFAQEESARVKHGKALWENGTYQHSVSSLASVSSQRNLFGRQDKIHKLDSSYFKNRGIYTLNEHDKYNIRSHGYKPHFVPNFNGPNAIRQFQPNQINENWKRHSYAGEQPETVPYLLLNRALNRTNNPPGNWKKPSDSLSVASSSREGYVSHHNTPAQSFANRLAQRKTTNLADRNSNVRRSFNGTDNHIRFLQQRMPTLEHTTKSFLRNWRIESYLNDHSEATPDSNGSALGDRFEGYDNPENLKANALYTHSRLRSSLVFKPTLPEQKEVNSCTTGSSNSTIIGSQGSETPKEVPDTPTNVQHLTDKPLPESIPKLPLQSEAPKMHTLQVPENHSVALNQTTNGHTESNNYIYKTLGVNKQTENLKNQQTENLLKRRSFPLFDNSKANLDPGNSKHYVYSTLTRNRVRQPEKPKEDLLKSSKSMHNVTHNLEEDEEEVTKRNSPSGTTTKSVSIAALLDVNKEESNKELASKKEVKGSPSFLKKGSQKLRSLLSLTPDKKENLSKNKAPAFYRLCSSSDTLVSEGEENQKPKKSDTKVDSSPRRKHSSSSNSQGSIHKSKEDVTVSPSQEINAPPDENKRTPSPGPVESKFLERAGDASAPRFNTEQIQYRDSREINAVVTPERRPTSSPRPTSSELLRSHSTDRRVYSRFEPFCKIESSIQPTSNMPNTSINRPEIKSATMGNSYGRSSPLLNYNTGVYRSYQPNENKFRGFMQKFGNFIHKNK [FAM83B]”, the “solubility in G1/S (log2)” value [1] is reported as -1.47 and the “solubility change mitosis (log2)” value [2] is reported as 0.383.

“MEVEAAEARSPAPGYKRSGRRYKCLSCTKTFPNAPRAARHAATHGPADCSEEVAEVKPKPETEAKAEEASGEKVSGSAAKPRPYACPLCPKAYKTAPELRSHGRSHTGEKPFPCPECGRRFMQPVCLRVHLASHAGELPFRCAHCPKAYGALSKLKIHQRGHTGERPYACADCGKSFADPSVFRKHRRTHAGLRPYSCERCGKAYAELKDLRNHERSHTGERPFLCSECGKSFSRSSSLTCHQRIHAAQKPYRCPACGKGFTQLSSYQSHERTHSGEKPFLCPRCGRMFSDPSSFRRHQRAHEGVKPYHCEKCGKDFRQPADLAMHRRVHTGDRPFKCLQCDKTFVASWDLKRHALVHSGQRPFRCEECGRAFAERASLTKHSRVHSGERPFHCNACGKSFVVSSSLRKHERTHRSSEAAGVPPAQELVVGLALPVGVAGESSAAPAAGAGLGDPPAGLLGLPPESGGVMATQWQVVGMTVEHVECQDAGVREAPGPLEGAGEAGGEEADEKPPQFVCRECKETFSTMTLLRRHERSHPELRPFPCTQCGKSFSDRAGLRKHSRTHSSVRPYTCPHCPKAFLSASDLRKHERTHPVPMGTPTPLEPLVALLGMPEEGPA [ZNF668]” was tested, and the “solubility in G1/S (log2)” value [1] was -0.985 and the “solubility change mitosis (log2)” value [2] was 0.453.

“MEVEDSGGVVLTAYHSYARAQPPNAESRCAPRAAASHPLSRKSIPRCRRINRMLSNESLHPPAFSRSNSEASVDSASMEDFWREIESIKDSSMGGQEEPPPAEVTPVDEGELEAEWLQDVGLSTLISGDEEEDGKALLSTLTRTQAAAVQKRYHTYTQTMRKKDKQSIRDVRDIFGVSESPPRDTCGNHTNQLDGTKEERELPRVIKTSGSMPDDASLNSTTLSDASQDKEGSFAVPRSDSVAILETIPVLPVHSNGSPEPGQPVQNAISDDDFLEKNIPPEAEELSFEVSYSEMVTEALKRNKLKKSEIKKEDYVLTKFNVQKTRFGLTEAGDLSAEDMKKIRHLSLIELTAFFDAFGIQLKRNKTEKVKGRDNGIFGVPLTVLLDGDRKKDPGVKVPLVLQKFFEKVEESGLESEGIFRLSGCTAKVKQYREELDAKFNADKFKWDKMCHREAAVMLKAFFRELPTSLFPVEYIPAFISLMERGPHVKVQFQALHLMVMALPDANRDAAQALMTFFNKVIANESKNRMSLWNISTVMAPNLFFSRSKHSDYEELLLANTAAHIIRLMLKYQKILWKVPSFLITQVRRMNEATMLLKKQLPSVRKLLRRKTLERETASPKTSKVLQKSPSARRMSDVPEGVIRVHAPLLSKVSMAIQLNNQTKAKDILAKFQYENSHGSSECIKIQNQRLYEIGGNIGEHCLDPDAYILDVYRINPQAEWVIKPQQSS [ARHGAP28]” was tested, and the “solubility in G1/S (log2)” value [1] was 0.167 and the “solubility change mitosis (log2)” value [2] was 0.00445.
